# Experiments:
# Assay in all cases: EMSA
# R2Bm protein (WT) = R2Bm protein (WT) (UniProt V9H052); conditions: 3' or 5' PBM RNA; reference
# [1] = tested on: R2Bm GR/AD/A mutant GR/AD/A (double point, presumptive alpha-finger); conditions: 3' PBM RNA; reduced 24%; with 5' PBM RNA reduced about 13%
# [2] = tested on: R2Bm SR/AIR/A mutant SR/AIR/A (double point, presumptive alpha-finger); conditions: 3' PBM RNA; reduced 13%; with 5' PBM RNA reduced 19-28%
# [3] = tested on: R2Bm SR/AGR/A mutant SR/AGR/A (double point, presumptive alpha-finger); conditions: 3' PBM RNA (upstream binding); increased up to 32%
# UniProt V9H052, sequence (V9H052 entry or part of it): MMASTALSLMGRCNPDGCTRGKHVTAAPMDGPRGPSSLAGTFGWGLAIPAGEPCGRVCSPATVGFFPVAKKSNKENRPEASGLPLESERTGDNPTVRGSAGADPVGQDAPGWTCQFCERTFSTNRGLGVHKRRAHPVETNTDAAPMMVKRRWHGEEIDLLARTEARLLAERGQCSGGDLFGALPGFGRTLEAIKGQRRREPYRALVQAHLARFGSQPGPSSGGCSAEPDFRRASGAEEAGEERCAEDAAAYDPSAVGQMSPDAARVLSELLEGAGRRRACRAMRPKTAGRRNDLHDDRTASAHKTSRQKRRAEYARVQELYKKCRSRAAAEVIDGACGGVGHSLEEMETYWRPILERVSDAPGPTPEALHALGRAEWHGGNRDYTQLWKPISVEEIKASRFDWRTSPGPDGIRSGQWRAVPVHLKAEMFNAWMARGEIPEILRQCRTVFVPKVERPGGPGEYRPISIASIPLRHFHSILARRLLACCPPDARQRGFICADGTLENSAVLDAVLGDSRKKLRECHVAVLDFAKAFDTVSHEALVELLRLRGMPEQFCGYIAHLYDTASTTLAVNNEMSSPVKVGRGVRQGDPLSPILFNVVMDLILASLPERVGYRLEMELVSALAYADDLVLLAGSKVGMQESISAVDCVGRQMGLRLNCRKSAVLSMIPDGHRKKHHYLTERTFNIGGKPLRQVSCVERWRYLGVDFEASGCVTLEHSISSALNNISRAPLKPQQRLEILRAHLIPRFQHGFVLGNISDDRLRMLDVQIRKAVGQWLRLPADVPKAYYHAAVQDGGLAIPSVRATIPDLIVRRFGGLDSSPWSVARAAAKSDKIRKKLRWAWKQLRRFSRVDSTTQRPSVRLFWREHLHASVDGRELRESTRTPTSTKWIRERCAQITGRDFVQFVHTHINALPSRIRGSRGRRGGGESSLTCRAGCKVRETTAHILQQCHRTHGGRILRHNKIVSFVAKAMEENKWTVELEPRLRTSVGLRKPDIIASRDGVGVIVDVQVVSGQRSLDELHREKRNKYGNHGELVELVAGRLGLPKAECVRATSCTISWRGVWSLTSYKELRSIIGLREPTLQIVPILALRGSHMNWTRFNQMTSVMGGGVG
substance,measurement,setting,value
linear 28S rDNA target,binding signal (fraction of WT),R2Bm protein (WT),1
same,binding signal (fraction of WT),[1],0.76
same,binding signal (fraction of WT),[2],0.87
same,binding signal (fraction of WT),[3],1.32
